Patent publication US20250136683A1 (SINOMAB BIOSCIENCE, published 2025)

How the values were obtained:
[1] = biological target: T1, LRID (murine IgG anti-idiotype antibody against the antigen binding site of SM03 and SM06); assay: direct ELISA, plate coated with LRID
T1 construct: An scFv from a phage library, re-engineered as a murine IgG; also called anti-idiotype antibody for SM03; surrogate antigen for CD22

[2] = biological target: T2, recombinant human CD22 encompassing domains 2-4 (CD22d2-4) (human, UniProt P20273 139-417); assay: direct ELISA, plate coated with CD22d2-4
T2 construct: also called domain 2-4 of recombinant human CD22 antigen

[3] = biological target: T3, human recombinant CD22 (PeproTech) (human, UniProt P20273 20-687, limits assumed); assay: SPR (BIAcore), CD22 immobilized on CM5 chip, SM03 injected
T3 construct: Bought protein immobilized on a CM5 chip; also called recombinant human CD22 antigen; human CD22 antigen
Protocol: Affinity of anti-CD22 antibodies against human CD22 was performed using BIAcore (GE Healthcare Life Sciences, Piscataway, NJ) according to standard procedures. Briefly, human recombinant CD22 (20 μg/ml, PeproTech, Rocky Hill, NJ) was immobilized on carboxymethylated dextran-coated CM5 sensor chip. The chip surface was firstly activated with N-ethyl-N′-(3-[…]) carbodiimide hydrochloride (EDC) and N-hydroxysuccinimide (NHS). […] The dissociation was studied by washing with running buffer for 3 min. The chip surface was then regenerated by injection with 50 mM glycine-Cl for 60 s. Kinetic parameters including ka (association rate constant) and kd (dissociation rate constant) were estimated using the BIA evaluation software. The specific binding curves were normalized by subtracting the control curve.

[4] = biological target: LRID Fab fused to the transmembrane portion of glycophorin A, on SP2/0 cells (Fab-GlycoA); assay: cell-based or functional assay
[5] = biological target: LRID Fab fused to the GPI signal sequence from decay accelerating factor (DAF), on SP2/0 cells (Fab-GPI); assay: cell-based or functional assay
[6] = biological target: T2, recombinant human CD22 encompassing …; assay: ELISA, plate coated with refolded CD22d2-4, % Binding
Protocol: Preliminary epitope mapping was done by expressing different combinations of extracellular domains encompassing the human CD22 sequence in bacteria and the refolded recombinant proteins were tested for binding to SM03 in an ELISA assay. […] There are 6 extracellular domains for human CD22 antigen that are expressed on the surface of matured B cells. […] Briefly, the DNA sequence encoding different domain regions of human CD22 were cloned into a pET bacterial expression vector preceded with a pelB sequence (as described in Ward et al. (1989) Nature 341:544-546). The expression vectors were used to transform bacterial host cell BL21 (DE3) pLysS (Promega, Madison, WI) using standard techniques in molecular biology: expression of the transfected genes were induced by the addition of 1 mM of isopropyle β-D-thiogalactoside (IPTG). After incubating at 37° C. for 4 hours with orbital shaking at 250 rpm, the bacteria were pelleted by centrifugation at 6,000 rpm for 15 minutes. Cells were lysed in lysis buffer (50 mM Tris-HCl, pH 8 containing 0.1 M NaCl, 5 mM EDTA, 0.1% NaN₃, 0.5% TritonX-100, 100 μM PMSF and 1 mM DTT) with the aid of a glass homogenizer. After French press treatment, 2.5 mM MgCl₂ was added to chelate the EDTA, and 0.1 mg/ml Lysozyme and 0.01 mg/ml DNase were added and the mixture was incubated at room temperature for 20 minutes. […]

T1 sequence (VH, as listed by the source, chain 1 of 2): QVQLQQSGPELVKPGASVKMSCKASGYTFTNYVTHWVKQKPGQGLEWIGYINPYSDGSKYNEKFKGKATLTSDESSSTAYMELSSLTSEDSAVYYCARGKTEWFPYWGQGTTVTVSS
T1 sequence (VL, as listed by the source, chain 2 of 2): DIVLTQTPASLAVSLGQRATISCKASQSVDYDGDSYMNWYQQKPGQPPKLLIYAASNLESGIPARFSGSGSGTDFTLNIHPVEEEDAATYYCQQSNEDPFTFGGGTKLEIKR
LRID Fab fused to the transmembrane portion of glycophorin A, on SP2/0 cells (Fab-GlycoA), sequence (VH, as listed by the source, chain 1 of 2): as the sequence (VH, as listed by the source, chain 1 of 2) above
LRID Fab fused to the transmembrane portion of glycophorin A, on SP2/0 cells (Fab-GlycoA), sequence (VL, as listed by the source, chain 2 of 2): as the sequence (VL, as listed by the source, chain 2 of 2) above
LRID Fab fused to the GPI signal sequence from decay accelerating factor (DAF), on SP2/0 cells (Fab-GPI), sequence (VH, as listed by the source, chain 1 of 2): as the sequence (VH, as listed by the source, chain 1 of 2) above
LRID Fab fused to the GPI signal sequence from decay accelerating factor (DAF), on SP2/0 cells (Fab-GPI), sequence (VL, as listed by the source, chain 2 of 2): as the sequence (VL, as listed by the source, chain 2 of 2) above

B1: SM06 (antibody, V domains shown)
VH: EVQLVESGGGLVQPGGSLRLSCAASGFSFSIYDMSWVRQAPGKGLEWVAYISSGGGTTYYPDTVKGRFTISRDNAKNSLYLQMNSLRVEDTALYYCARHSGYGSSYGVLFAYWGQGTLVTVSS
VL: DIQLTQSPSSLSASVGDRVTISCRASQDISNYLNWYQQKPGKAPKLLIYYTSILHSGVPSRFSGSGSGTEFTLTISSLQPEDFATYFCQQGNTLPWTFGGGTKVEIKR
notes: Framework-patched (humanized) anti-CD22 antibody with human constant regions; also called framework-patched (humanized) version of SM03
EC50 [1]: 0.065 µg/mL
EC50 [2]: 0.14 µg/mL

B2: SM03 (antibody, V domains shown)
VH: QVQLQESGGGLVKPGGSLKLSCAASGFAFSIYDMSWVRQTPEKRLEWVAYISSGGGTTYYPDTVKGRFTISRDNAKNTLYLQMSSLKSEDTAMYYCARHSGYGSSYGVLFAYWGQGTLVTVSS
VL: DIQLTQTTSSLSASLGDRVTISCRASQDISNYLNWYQQKPDGTVKLLIYYTSILHSGVPSRFSGSGSGTDYSLTISNLEQEDFATYFCQQGNTLPWTFGGGTKLEIKR
notes: Chimeric antibody against human CD22: murine variable regions with human constant regions; The embodiments speak of an IgG1 heavy chain and kappa light chain constant region; also called anti-CD22 antibody SM03; chimeric anti-CD22 antibody
Ka [3]: 8.2e+08 M⁻¹
Kd [3]: 1.22 nM
koff [3]: 0.0137 s⁻¹
kon [3]: 1.13e+07 M⁻¹ s⁻¹
CMC killing of surrogate target cells, EC50 [4]: 130 µg/mL
CMC killing of surrogate target cells, EC50 [5]: 220 µg/mL
EC50 (read off the curve) [6]: ~0.02 µg/mL
EC50 [1]: 0.08 µg/mL
EC50 [2]: 0.1 µg/mL
